{
  "source": "paper doi:10.1101/2022.10.03.510455",
  "target": "FLAG tagged TSC2 (UniProt P49815)",
  "sequence (P49815 whole entry)": "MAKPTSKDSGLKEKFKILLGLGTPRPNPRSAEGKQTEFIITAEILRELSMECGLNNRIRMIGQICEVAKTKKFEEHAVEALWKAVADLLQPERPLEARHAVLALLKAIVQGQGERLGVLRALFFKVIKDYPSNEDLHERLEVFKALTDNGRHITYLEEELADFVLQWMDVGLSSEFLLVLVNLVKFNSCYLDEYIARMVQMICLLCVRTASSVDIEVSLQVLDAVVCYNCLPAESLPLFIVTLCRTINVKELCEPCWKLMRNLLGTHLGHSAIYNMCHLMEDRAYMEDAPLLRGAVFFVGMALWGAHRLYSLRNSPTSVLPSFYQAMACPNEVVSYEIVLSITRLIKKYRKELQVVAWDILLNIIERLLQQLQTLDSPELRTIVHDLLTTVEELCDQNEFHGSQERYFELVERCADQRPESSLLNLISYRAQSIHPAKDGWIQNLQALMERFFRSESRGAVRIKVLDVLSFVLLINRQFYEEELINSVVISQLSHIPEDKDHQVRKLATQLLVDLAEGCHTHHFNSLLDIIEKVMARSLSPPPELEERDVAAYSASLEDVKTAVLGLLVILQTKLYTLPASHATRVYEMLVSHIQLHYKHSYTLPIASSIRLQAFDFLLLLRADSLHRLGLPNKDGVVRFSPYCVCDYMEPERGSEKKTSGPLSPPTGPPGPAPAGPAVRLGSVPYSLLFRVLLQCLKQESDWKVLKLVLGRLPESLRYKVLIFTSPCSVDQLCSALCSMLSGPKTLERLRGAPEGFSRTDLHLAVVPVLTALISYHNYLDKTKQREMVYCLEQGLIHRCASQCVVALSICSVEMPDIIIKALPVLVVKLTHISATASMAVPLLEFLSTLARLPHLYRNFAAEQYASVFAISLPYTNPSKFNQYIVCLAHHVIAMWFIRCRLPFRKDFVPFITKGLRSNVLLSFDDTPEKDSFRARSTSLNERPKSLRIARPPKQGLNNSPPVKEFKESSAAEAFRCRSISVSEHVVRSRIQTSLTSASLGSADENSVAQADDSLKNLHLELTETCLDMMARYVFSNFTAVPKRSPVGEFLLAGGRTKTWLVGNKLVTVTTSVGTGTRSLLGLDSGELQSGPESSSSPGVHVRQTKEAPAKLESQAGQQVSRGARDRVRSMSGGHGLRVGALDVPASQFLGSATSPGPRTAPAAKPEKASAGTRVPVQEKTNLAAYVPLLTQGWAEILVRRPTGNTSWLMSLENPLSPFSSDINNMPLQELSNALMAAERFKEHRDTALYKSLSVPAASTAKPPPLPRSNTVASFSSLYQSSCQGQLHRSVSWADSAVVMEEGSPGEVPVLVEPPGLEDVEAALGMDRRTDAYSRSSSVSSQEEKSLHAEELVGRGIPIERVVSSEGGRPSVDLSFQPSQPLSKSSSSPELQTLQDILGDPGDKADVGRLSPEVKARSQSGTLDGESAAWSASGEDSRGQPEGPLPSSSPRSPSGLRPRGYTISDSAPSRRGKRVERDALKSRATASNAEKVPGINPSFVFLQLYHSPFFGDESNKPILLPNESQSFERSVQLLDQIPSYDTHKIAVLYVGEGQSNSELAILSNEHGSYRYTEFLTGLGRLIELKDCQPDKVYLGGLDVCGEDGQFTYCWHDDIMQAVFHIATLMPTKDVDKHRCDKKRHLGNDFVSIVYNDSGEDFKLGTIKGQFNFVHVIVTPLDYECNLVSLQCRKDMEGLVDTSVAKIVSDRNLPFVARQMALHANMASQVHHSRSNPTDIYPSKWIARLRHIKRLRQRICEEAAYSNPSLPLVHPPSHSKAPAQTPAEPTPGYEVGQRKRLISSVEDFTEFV",
  "test": "single molecule pulldown",
  "data": [
    {"substance": "recombinant α-syn PFF (from UniProt P37840 1-140) (natural protein)", "values": [
      {"measurement": "IC50", "result": 0.5, "unit": "nM"}
    ]}
  ]
}
